Measurements reported in publication PMC4207752 (2014).

Target: F-actin (skeletal muscle) (Oryctolagus cuniculus, UniProt P68135)
Assay: co-sedimentation assay

B1: dystrophin N-ABD K18N 1-246 (protein)
chain: MLWWEEVEDCYEREDVQNKTFTKWVNAQFSKFGKQHIENLFSDLQDGRRLLDLLEGLTGQKLPKEKGSTRVHALNNVNKALRVLQNNNVDLVNIGSTDIVDGNHKLTLGLIWNIILHWQVKNVMKNIMAGLQQTNSEKILLSWVRQSTRNYPQVNVINFTTSWSDGLALNALIHSHRPDLFDWNSVVCQQSATQRLEHAFNIARYQLGIEKLLDPEDVDTTYPDKKSILMYITSLFQVLPQQVSIE
Kd: ~45 µM
